Source: the supplement of paper PMC5998384

Tests used:
HeLa Kyoto [1] = assay: solubility in G1/S (NP-40 vs SDS abundance) (log2 ratio); higher = more soluble; settings: cell cycle stage: G1/S
HeLa Kyoto [2] = assay: solubility change mitosis vs G1/S (difference of NP-40 vs SDS log2 ratios) (log2 ratio difference); higher = more soluble in mitosis
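Throughout, for solubility change mitosis vs G1/S (difference of NP-40 vs SDS log2 ratios): synchronized HeLa Kyoto cells (double thymidine block for G1/S, nocodazole release for mitosis), protein amounts in NP-40 versus SDS lysates quantified by mass spectrometry, three biological replicates.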
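Throughout, for solubility in G1/S (NP-40 vs SDS abundance): HeLa Kyoto cells arrested at G1/S by double thymidine block, proteins quantified by TMT10plex mass spectrometry in mild NP-40 versus SDS extracts, three biological replicates.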

Row | Sequence | solubility in G1/S (log2) (HeLa Kyoto [1]) | solubility change mitosis (log2) (HeLa Kyoto [2])
1 | MAVTEASLLRQCPLLLPQNRSKTVYEGFISAQGRDFHLRIVLPEDLQLKNARLLCSWQLRTILSGYHRIVQQRMQHSPDLMSFMMELKMLLEVALKNRQELYALPPPPQFYSSLIEEIGTLGWDKLVYADTCFSTIKLKAEDASGREHLITLKLKAKYPAESPDYFVDFPVPFCASWTPQSSLISIYSQFLAAIESLKAFWDVMDEIDEKTWVLEPEKPPRSATARRIALGNNVSINIEVDPRHPTMLPECFFLGADHVVKPLGIKLSRNIHLWDPENSVLQNLKDVLEIDFPARAILEKSDFTMDCGICYAYQLDGTIPDQVCDNSQCGQPFHQICLYEWLRGLLTSRQSFNIIFGECPYCSKPITLKMSGRKH [FANCL] | 0.184 | 0.0266
2 | MCCEKWSRVAEMFLFIEEREDCKILCLCSRAFVEDRKLYNLGLKGYYIRDSGNNSGDQATEEEEGGYSCGTAESHDSKGIGLDESELDSEAELMRSMGLPLQFGRITAHKDFEVSMNTRNKVKIKKKKHQKKYLDEIVQESWRKEYEEDDILASDDPSSIEQYENTRTYELQSKKDTETENPPVENTLSPKLEITEKWEKYWNEYGGGLLWQSWQEKHPGQALSSEPWNFPDTKEEWEQHYSQLYWYYLEQFQYWEAQGWTFDASQSCDTDTYTSKTEADDKNDEKCMKVDLVSFPSSPIMVDNDSSGTSDKDHSEILDGISNIKLNSEEVTQSQLDSCTSHDGHQQLSEVSSKRECPASGQSEPRNGGTNEESNSSGNTNTDPPAEDSQKSSGANTSKDRPHASGTDGDESEEDPPEHKPSKLKRSHELDIDENPASDFDDSGSLLGFKYGSGQKYGGIPNFSHRQVRYLEKNVKLKSKYLDMRRQIKMKNKHIFFTKESEKPFFKKSKILSKVEKFLTWVNKPMDEEASQESSSHDNVHDASTSSDSEEQDMSVKKGDDLLETNNPEPEKCQSVSSAGELETENYERDSLLATVPDEQDCVTQEVPDSRQAETEAEVKKKKNKKKNKKVNGLPPEIAAVPELAKYWAQRYRLFSRFDDGIKLDREGWFSVTPEKIAEHIAGRVSQSFKCDVVVDAFCGVGGNTIQFALTGMRVIAIDIDPVKIALARNNAEVYGIADKIEFICGDFLLLASFLKADVVFLSPPWGGPDYATAETFDIRTMMSPDGFEIFRLSKKITNNIVYFLPRNADIDQVASLAGPGGQVEIEQNFLNNKLKTITAYFGDLIRRPASET [TGS1] | 0.102 | 0.247
3 | MDDIADRMRMDAGEVTLVNHNSVFKTHLLPQTGFPEDQLSLSDQQILSSRQGHLDRSFTCSTRSAAYNPSYYSDNPSSDSFLGSGDLRTFGQSANGQWRNSTPSSSSSLQKSRNSRSLYLETRKTSSGLSNSFAGKSNHHCHVSAYEKSFPIKPVPSPSWSGSCRRSLLSPKKTQRRHVSTAEETVQEEEREIYRQLLQMVTGKQFTIAKPTTHFPLHLSRCLSSSKNTLKDSLFKNGNSCASQIIGSDTSSSGSASILTNQEQLSHSVYSLSSYTPDVAFGSKDSGTLHHPHHHHSVPHQPDNLAASNTQSEGSDSVILLKVKDSQTPTPSSTFFQAELWIKELTSVYDSRARERLRQIEEQKALALQLQNQRLQEREHSVHDSVELHLRVPLEKEIPVTVVQETQKKGHKLTDSEDEFPEITEEMEKEIKNVFRNGNQDEVLSEAFRLTITRKDIQTLNHLNWLNDEIINFYMNMLMERSKEKGLPSVHAFNTFFFTKLKTAGYQAVKRWTKKVDVFSVDILLVPIHLGVHWCLAVVDFRKKNITYYDSMGGINNEACRILLQYLKQESIDKKRKEFDTNGWQLFSKKSQEIPQQMNGSDCGMFACKYADCITKDRPINFTQQHMPYFRKRMVWEILHRKLL [SENP1] | -0.531 | 0.402
4 | MDEDEFELQPQEPNSFFDGIGADATHMDGDQIVVEIQEAVFVSNIVDSDITVHNFVPDDPDSVVIQDVVEDVVIEEDVQCSDILEEADVSENVIIPEQVLDSDVTEEVSLPHCTVPDDVLASDITSTSMSMPEHVLTSESMHVCDIGHVEHMVHDSVVEAEIITDPLTSDIVSEEVLVADCAPEAVIDASGISVDQQDNDKASCEDYLMISLDDAGKIEHDGSTGVTIDAESEMDPCKVDSTCPEVIKVYIFKADPGEDDLGGTVDIVESEPENDHGVELLDQNSSIRVPREKMVYMTVNDSQQEDEDLNVAEIADEVYMEVIVGEEDAAVAAAAAAVHEQQIDEDEMKTFVPIAWAAAYGNNSDGIENRNGTASALLHIDESAGLGRLAKQKPKKKRRPDSRQYQTAIIIGPDGHPLTVYPCMICGKKFKSRGFLKRHMKNHPEHLAKKKYHCTDCDYTTNKKISLHNHLESHKLTSKAEKAIECDECGKHFSHAGALFTHKMVHKEKGANKMHKCKFCEYETAEQGLLNRHLLAVHSKNFPHICVECGKGFRHPSELRKHMRIHTGEKPYQCQYCEYRSADSSNLKTHIKTKHSKEMPFKCDICLLTFSDTKEVQQHTLVHQESKTHQCLHCDHKSSNSSDLKRHVISVHTKDYPHKCEMCEKGFHRPSELKKHVAVHKGKKMHQCRHCDFKIADPFVLSRHILSVHTKDLPFRCKRCRKGFRQQNELKKHMKTHSGRKVYQCEYCEYSTTDASGFKRHVISIHTKDYPHRCEYCKKGFRRPSEKNQHIMRHHKEVGLP [ZFY] | -0.668 | 0.257
5 | MDEQPRLMHSHAGVGMAGHPGLSQHLQDGAGGTEGEGGRKQDIGDILQQIMTITDQSLDEAQARKHALNCHRMKPALFNVLCEIKEKTVLSIRGAQEEEPTDPQLMRLDNMLLAEGVAGPEKGGGSAAAAAAAAASGGAGSDNSVEHSDYRAKLSQIRQIYHTELEKYEQACNEFTTHVMNLLREQSRTRPISPKEIERMVSIIHRKFSSIQMQLKQSTCEAVMILRSRFLDARRKRRNFNKQATEILNEYFYSHLSNPYPSEEAKEELAKKCGITVSQVSNWFGNKRIRYKKNIGKFQEEANIYAAKTAVTATNVSAHGSQANSPSTPNSAGSSSSFNMSNSGDLFMSVQSLNGDSYQGAQVGANVQSQVDTLRHVISQTGGYSDGLAASQMYSPQGISANGGWQDATTPSSVTSPTEGPGSVHSDTSN [PBX1] | 0.177 | 0.0731
6 | MDGTEGSAGQPGPAERSHRSSVSSVGARAADVLVYLADDTVVPLAVENLPSLSAHELHRAVREVLQLPDIALDVFALWLVSPLLEVQLKPKHQPYKLGRQWPELLLRFTSAPDDDVAMDEPFLQFRRNVFFPKRRELQIHDEEVLRLLYEEAKGNVLAARYPCDVEDCEALGALVCRVQLGPYQPGRPAACDLREKLDSFLPAHLCKRGQSLFAALRGRGARAGPGEQGLLNAYRQVQEVSSDGGCEAALGTHYRAYLLKCHELPFYGCAFFHGEVDKPAQGFLHRGGRKPVSVAISLEGVHVIDSREKHVLLGLRFQELSWDHTSPEEEEPILWLEFDGDSEGTPVNKLLKIYSKQAELMSSLIEYCIELSQAAEPAGPQDSATGSPSDPSSSLAPVQRPKLRRQGSVVSSRIQHLSTIDYVEDGKGIRRVKPKRTTSFFSRQLSLGQGSYTVVQPGDSLEQG [FRMD8] | 0.248 | -0.0705
7 | MDILKSEILRKRQLVEDRNLLVENKKYFKRSELAKKEEEAYFERCGYKIQPKEEDQKPLTSSNPVLELELAEEKLPMTLSRQEVIRRLRERGEPIRLFGETDYDAFQRLRKIEILTPEVNKGLRNDLKAALDKIDQQYLNEIVGGQEPGEEDTQNDLKVHEENTTIEELEALGESLGKGDDHKDMDIITKFLKFLLGVWAKELNAREDYVKRSVQGKLNSATQKQTESYLRPLFRKLRKRNLPADIKESITDIIKFMLQREYVKANDAYLQMAIGNAPWPIGVTMVGIHARTGREKIFSKHVAHVLNDETQRKYIQGLKRLMTICQKHFPTDPSKCVEYNAL [PRPF18] | 0.178 | 0.09
8 | MDSSIHLSSLISRHDDEATRTSTSEGLEEGEVEGETLLIVESEDQASVDLSHDQSGDSLNSDEGDVSWMEEQLSYFCDKCQKWIPASQLREQLSYLKGDNFFRFTCSDCSADGKEQYERLKLTWQQVVMLAMYNLSLEGSGRQGYFRWKEDICAFIEKHWTFLLGNRKKTSTWWSTVAGCLSVGSPMYFRSGAQEFGEPGWWKLVHNKPPTMKPEGEKLSASTLKIKAASKPTLDPIITVEGLRKRASRNPVESAMELKEKRSRTQEAKDIRRAQKEAAGFLDRSTSSTPVKFISRGRRPDVILEKGEVIDFSSLSSSDRTPLTSPSPSPSLDFSAPGTPASHSATPSLLSEADLIPDVMPPQALFHDDDEMEGDGVIDPGMEYVPPPAGSVASGPVVGVRKKVRGPEQIKQEVESEEEKPDRMDIDSEDTDSNTSLQTRAREKRKPQLEKDTKPKEPRYTPVSIYEEKLLLKRLEACPGAVAMTPEARRLKRKLIVRQAKRDRGLPLFDLDQVVNAALLLVDGIYGAKEGGISRLPAGQATYRTTCQDFRILDRYQTSLPSRKGFRHQTTKFLYRLVGSEDMAVDQSIVSPYTSRILKPYIRRDYETKPPKLQLLSQIRSHLHRSDPHWTPEPDAPLDYCYVRPNHIPTINSMCQEFFWPGIDLSECLQYPDFSVVVLYKKVIIAFGFMVPDVKYNEAYISFLFVHPEWRRAGIATFMIYHLIQTCMGKDVTLHVSASNPAMLLYQKFGFKTEEYVLDFYDKYYPLESTECKHAFFLRLRR [CSRP2BP] | 0.391 | 0.153
9 | MDTDSQRSHLSSFTMKLMDKFHSPKIKRTPSKKGKPAEVSVKIPEKPVNKEATDRFLPEGYPLPLDLEQQAVEFMSTSAVASRSQRQKNLSWLEEKEKEVVSALRYFKTIVDKMAIDKKVLEMLPGSASKVLEAILPLVQNDPRIQHSSALSSCYSRVYQSLANLIRWSDQVMLEGVNSEDKEMVTTVKGVIKAVLDGVKELVRLTIEKQGRPSPTSPVKPSSPASKPDGPAELPLTDREVEILNKTTGMSQSTELLPDATDEEVAPPKPPLPGIRVVDNSPPPALPPKKRQSAPSPTRVAVVAPMSRATSGSSLPVGINRQDFDVDCYAQRRLSGGSHSYGGESPRLSPCSSIGKLSKSDEQLSSLDRDSGQCSRNTSCETLDHYDPDYEFLQQDLSNADQIPQQTAWNLSPLPESLGESGSPFLGPPFQLPLGGHPQPDGPLAPGQQTDTPPALPEKKRRSAASQTADGSGCRVSYERHPSQYDNISGEDLQSTAPIPSVPYAPFAAILPFQHGGSSAPVEFVGDFTAPESTGDPEKPPPLPEKKNKHMLAYMQLLEDYSEPQPSMFYQTPQNEHIYQQKNKLLMEVYGFSDSFSGVDSVQELAPPPALPPKQRQLEPPAGKDGHPRDPSAVSGVPGKDSRDGSERAPKSPDALESAQSEEEVDELSLIDHNEIMSRLTLKQEGDDGPDVRGGSGDILLVHATETDRKDLVLYCEAFLTTYRTFISPEELIKKLQYRYEKFSPFADTFKKRVSKNTFFVLVRVVDELCLVELTEEILKLLMELVFRLVCNGELSLARVLRKNILDKVDQKKLLRCATSSQPLAARGVAARPGTLHDFHSHEIAEQLTLLDAELFYKIEIPEVLLWAKEQNEEKSPNLTQFTEHFNNMSYWVRSIIMLQEKAQDRERLLLKFIKIMKHLRKLNNFNSYLAILSALDSAPIRRLEWQKQTSEGLAEYCTLIDSSSSFRAYRAALSEVEPPCIPYLGLILQDLTFVHLGNPDYIDGKVNFSKRWQQFNILDSMRCFQQAHYDMRRNDDIINFFNDFSDHLAEEALWELSLKIKPRNITRRKTDREEKT [RAPGEF1] | -0.18 | 0.157
